Data taken from publication PMC11237882 (2024).

T1: Homer1 EVH1 (Homo sapiens, UniProt Q86YM7)
T1 chain: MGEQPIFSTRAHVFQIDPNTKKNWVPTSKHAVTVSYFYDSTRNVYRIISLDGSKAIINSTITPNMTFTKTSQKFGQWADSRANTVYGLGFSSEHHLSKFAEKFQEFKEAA


Legend:
ENAH EVH1 = ENAH EVH1 (Homo sapiens, UniProt Q8N8S7); experiment: BLI
Homer1 EVH1 = biological target: T1, Homer1 EVH1; experiment: BLI

ENAH EVH1, sequence (Q8N8S7 1-111): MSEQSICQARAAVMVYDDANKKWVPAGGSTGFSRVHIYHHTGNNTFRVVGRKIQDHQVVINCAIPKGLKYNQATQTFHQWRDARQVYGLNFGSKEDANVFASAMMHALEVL

Binder	Kd (ENAH EVH1)	Kd (Homer1 EVH1)
FIAHILPAPPDCFPDKVKAF [FLNC]	> 150 µM	–
GYPYQYPGPPPCFPPAYQDP [DVL1]	> 150 µM	–
ALPHPGAAPWPMAFPYQYPPPAHPYNPHPGFPELGY [DVL3P1A]	–	> 150 µM
PNHLPLPGPPFSFQNVLVVL [KANK4]	> 150 µM	–
RPATGYPLPPQIFNESQYRG [SH3BGRL]	> 150 µM	–
